We go through one molecule from patent publication US20080103095A1 (HEALTH RESEARCH, published 2008).

The test concerns the target T1, native hsp110 from murine tumor cells (Colon26 / colon 26, Meth A) and liver (mouse (murine colon 26 tumor), UniProt Q61699 2-858, limits assumed).
T1 construct: Native protein in cell extracts or chromatographic fractions; also called heat shock protein 110
Put plainly: immunoblot of the purified native hsp110 fraction (ion exchange and size exclusion) from Colon26 cells. For orientation: Immunoblotting shows a protein as a band on a membrane.

T1 sequence (Q61699 2-858 limits assumed): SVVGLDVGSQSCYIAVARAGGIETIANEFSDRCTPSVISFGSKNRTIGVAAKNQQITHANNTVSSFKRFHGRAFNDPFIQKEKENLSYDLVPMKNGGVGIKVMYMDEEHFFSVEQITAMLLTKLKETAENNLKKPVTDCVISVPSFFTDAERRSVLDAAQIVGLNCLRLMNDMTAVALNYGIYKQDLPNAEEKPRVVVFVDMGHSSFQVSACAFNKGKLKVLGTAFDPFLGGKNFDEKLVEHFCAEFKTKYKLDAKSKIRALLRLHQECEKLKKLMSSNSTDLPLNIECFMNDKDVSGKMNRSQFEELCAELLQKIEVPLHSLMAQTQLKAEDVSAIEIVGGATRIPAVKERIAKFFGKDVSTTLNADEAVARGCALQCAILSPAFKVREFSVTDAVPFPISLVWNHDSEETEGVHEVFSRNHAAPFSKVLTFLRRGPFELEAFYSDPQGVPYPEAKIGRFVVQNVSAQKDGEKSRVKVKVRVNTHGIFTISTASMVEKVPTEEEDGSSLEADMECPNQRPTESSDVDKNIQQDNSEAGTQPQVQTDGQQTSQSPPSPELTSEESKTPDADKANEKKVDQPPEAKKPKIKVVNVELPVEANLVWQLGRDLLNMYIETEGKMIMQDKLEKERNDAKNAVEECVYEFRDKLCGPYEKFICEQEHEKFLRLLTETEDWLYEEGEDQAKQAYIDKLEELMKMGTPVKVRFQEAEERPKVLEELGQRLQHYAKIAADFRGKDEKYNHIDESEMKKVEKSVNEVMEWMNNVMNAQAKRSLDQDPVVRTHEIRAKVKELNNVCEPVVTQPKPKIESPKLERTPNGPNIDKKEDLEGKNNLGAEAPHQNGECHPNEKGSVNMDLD

B1: T-complex polypeptide1 (TCP-1) in Colon26 cells (other)
chain: not shown
Take B1: the binding result was “no binding”.
